The values that follow come from PMC10866937, “Aptamers targeting SARS-CoV-2 nucleocapsid protein exhibit potential anti pan-coronavirus activity”.

For the first data set, the target named is MERS-CoV nucleocapsid protein (MERS NP) (MERS-CoV, UniProt K9N4V7 1-411).
Experiment: not given
The following applies: protein: commercial; label: 5'-FAM in CE (position not restated for aptamers).
Consider GCAGGCAAGGCTCTACTGACCCGTTGCTTGATCGAC (ssDNA) [Seq-7], for which the binding result is “binds”.

Staying with this data set, now noted: protein: commercial; label: FAM in CE.
For the molecule TCCACGGTCGGTCCCCTTACCACTGGTCCCTTTGTC (ssDNA) [Seq-4650], the binding result is “binds”.

With CACCTCTCACCCCACGGTTCTGGTCCTTCCCCGACG (ssDNA) [Seq-1280], the binding result is reported as “binds”.

With ACTCCCACCTTTATTGAGGGCGGTGACGGGTTCCCTC (ssDNA) [Seq-59], the binding result is “binds”.

As to AGGGGGGACACCTAGATTGTTGGCCGTGCGGATACG (ssDNA) [Seq-333], the binding result was “binds”.

Regarding AGGGGGGACATCTGGAGTGTTGGCCGTGCGGATACG (ssDNA) [Seq-1022], the binding result is reported as “binds”.

In a further data set the target is SARS-CoV nucleocapsid protein (SARS NP) (SARS-CoV, UniProt P59595 1-422).
Experiment: not given
The following applies: protein: commercial; label: 5'-FAM in CE (position not restated for aptamers).
In the case of GCAGGCAAGGCTCTACTGACCCGTTGCTTGATCGAC (ssDNA) [Seq-7], the binding result is “binds”.

The same data set, now with this note: protein: commercial; label: FAM in CE.
As for TCCACGGTCGGTCCCCTTACCACTGGTCCCTTTGTC (ssDNA) [Seq-4650], the binding result is listed as “binds”.

On to CACCTCTCACCCCACGGTTCTGGTCCTTCCCCGACG (ssDNA) [Seq-1280], for which the binding result is given as “binds”.

For the molecule ACTCCCACCTTTATTGAGGGCGGTGACGGGTTCCCTC (ssDNA) [Seq-59], the binding result is listed as “binds”.

Regarding AGGGGGGACACCTAGATTGTTGGCCGTGCGGATACG (ssDNA) [Seq-333], the binding result is recorded as “binds”.

AGGGGGGACATCTGGAGTGTTGGCCGTGCGGATACG (ssDNA) [Seq-1022]: the binding result was “binds”.

For the next data set, the target named is HCoV-OC43 nucleocapsid protein (HCoV-OC43, UniProt P33469 1-448). Description: CE; Kd range for six aptamers 6.57-31.76 nM. The following applies: protein: recombinant; label: 5'-FAM in CE (position not restated for aptamers).
Regarding GCAGGCAAGGCTCTACTGACCCGTTGCTTGATCGAC (ssDNA) [Seq-7], the binding result is recorded as “binds”.

Still in this data set, the particulars now being: protein: recombinant; label: FAM in CE.
For TCCACGGTCGGTCCCCTTACCACTGGTCCCTTTGTC (ssDNA) [Seq-4650], the binding result is “binds”.

As for CACCTCTCACCCCACGGTTCTGGTCCTTCCCCGACG (ssDNA) [Seq-1280], the binding result is “binds”.

Consider ACTCCCACCTTTATTGAGGGCGGTGACGGGTTCCCTC (ssDNA) [Seq-59], for which the binding result is on record as “binds”.

AGGGGGGACACCTAGATTGTTGGCCGTGCGGATACG (ssDNA) [Seq-333]: the binding result was “binds”.

As to AGGGGGGACATCTGGAGTGTTGGCCGTGCGGATACG (ssDNA) [Seq-1022], the binding result is listed as “binds”.

For the next data set, the target named is SARS-CoV-2 nucleocapsid protein (NP) (SARS-CoV-2 (WT), UniProt P0DTC9 1-419). Description: CE. The following applies: protein: commercial; label: 5'-FAM in CE (position not restated for aptamers).
On to GCAGGCAAGGCTCTACTGACCCGTTGCTTGATCGAC (ssDNA) [Seq-7], for which the binding result is “binds”.

The data set is the same for the next values; noted with them: protein: commercial; label: FAM in CE.
For the molecule TCCACGGTCGGTCCCCTTACCACTGGTCCCTTTGTC (ssDNA) [Seq-4650], the binding result is recorded as “binds”.

Regarding CACCTCTCACCCCACGGTTCTGGTCCTTCCCCGACG (ssDNA) [Seq-1280], the binding result is reported as “binds”.

For ACTCCCACCTTTATTGAGGGCGGTGACGGGTTCCCTC (ssDNA) [Seq-59], the binding result was “binds”.

For the molecule AGGGGGGACACCTAGATTGTTGGCCGTGCGGATACG (ssDNA) [Seq-333], the binding result is “binds”.

For the molecule AGGGGGGACATCTGGAGTGTTGGCCGTGCGGATACG (ssDNA) [Seq-1022], the binding result was “binds”.
